For 24 substances, Kd and IC50 of inhibition of ODC enzyme activity by AZ results are on record in publication PMC6995573.

One assay deals with Human ornithine decarboxylase (human) (UniProt P11926). The experiment in a line: AUC; sedimentation velocity, 20 °C, 30 mM Tris-HCl pH 7.4, 25 mM NaCl; ODC fixed at 0.3 mg/mL, AZ 0.02-0.19 mg/mL (AZ/ODC molar ratio 0.25 to 3); all data sets fitted to the AB hetero-association model in SEDPHAT.
Human ornithine decarboxylase (human), sequence (P11926 2-421): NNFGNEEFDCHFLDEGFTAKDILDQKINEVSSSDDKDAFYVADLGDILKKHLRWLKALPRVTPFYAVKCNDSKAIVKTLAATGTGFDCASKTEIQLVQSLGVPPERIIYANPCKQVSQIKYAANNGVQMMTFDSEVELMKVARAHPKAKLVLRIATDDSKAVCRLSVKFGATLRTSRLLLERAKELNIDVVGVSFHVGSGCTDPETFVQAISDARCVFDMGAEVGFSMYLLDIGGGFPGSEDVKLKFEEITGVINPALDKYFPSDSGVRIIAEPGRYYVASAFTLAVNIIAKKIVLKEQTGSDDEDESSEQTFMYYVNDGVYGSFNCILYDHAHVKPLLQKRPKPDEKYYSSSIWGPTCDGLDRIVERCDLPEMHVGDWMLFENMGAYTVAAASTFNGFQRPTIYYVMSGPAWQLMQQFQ
On to “AZ3_S124D/Q150E/K166Q/D179N (natural protein)”, for which the Kd came out at 500 nM.

As for “AZ3_S124D/Q150E/K166Q/S171H/D179N (natural protein)”, the equilibrium dissociation constant (Kd) was determined as 140 nM.

The target is the same in the next assay.
Assay: not given
In the case of AZ3_N168R (natural protein), the IC50 of inhibition of ODC enzyme activity by AZ turned out to be 1380 nM.

AZ3_N178K (natural protein): the IC50 of inhibition of ODC enzyme activity by AZ amounted to 670 nM.

In turn, AZ3_D179N (natural protein) displayed an IC50 of inhibition of ODC enzyme activity by AZ of 450 nM.

As to AZ3_Q150E (natural protein), the IC50 of inhibition of ODC enzyme activity by AZ amounted to 480 nM.

AZ3_N100R (natural protein): the IC50 of inhibition of ODC enzyme activity by AZ turned out to be 660 nM.

AZ3_Q177H (natural protein): the IC50 of inhibition of ODC enzyme activity by AZ is 1340 nM.

As for AZ3_N175C (natural protein), the IC50 of inhibition of ODC enzyme activity by AZ came out at 650 nM.

As for AZ3_S171H (natural protein), the IC50 of inhibition of ODC enzyme activity by AZ was found to be 430 nM.

The substance AZ3_T126K (natural protein) showed an IC50 of inhibition of ODC enzyme activity by AZ of 700 nM.

Turning to AZ3_R138S (natural protein), the IC50 of inhibition of ODC enzyme activity by AZ worked out at 810 nM.

Consider AZ3_Y145G (natural protein), for which the IC50 of inhibition of ODC enzyme activity by AZ was determined as 980 nM.

As for AZ3_D112K (natural protein), the IC50 of inhibition of ODC enzyme activity by AZ was determined as 550 nM.

Take AZ3_D136G (natural protein): the IC50 of inhibition of ODC enzyme activity by AZ worked out at 720 nM.

As for AZ3_S124D (natural protein), the IC50 of inhibition of ODC enzyme activity by AZ was 500 nM.

AZ3_R137G (natural protein): the IC50 of inhibition of ODC enzyme activity by AZ turned out to be 1230 nM.

Consider AZ3_G99D (natural protein), for which the IC50 of inhibition of ODC enzyme activity by AZ worked out at 780 nM.

Turning to AZ3_T106E (natural protein), the IC50 of inhibition of ODC enzyme activity by AZ is 1210 nM.

In turn, AZ3_H129N (natural protein) displayed an IC50 of inhibition of ODC enzyme activity by AZ of 670 nM.

Take AZ3_K166Q (natural protein): the IC50 of inhibition of ODC enzyme activity by AZ worked out at 420 nM.

In turn, AZ3_D149P (natural protein) yielded an IC50 of inhibition of ODC enzyme activity by AZ of 2050 nM.

As for AZ3_A98D (natural protein), the IC50 of inhibition of ODC enzyme activity by AZ was determined as 670 nM.

As to AZ3_S127R (natural protein), the IC50 of inhibition of ODC enzyme activity by AZ was 1020 nM.

The target is the same in a further assay.
Assay: not given
This is another data set of the same source.
For “AZ3_S124D/Q150E/K166Q/D179N (natural protein)”, the IC50 of inhibition of ODC enzyme activity by AZ worked out at 250 nM.

Take “AZ3_S124D/Q150E/K166Q/S171H/D179N (natural protein)”: the IC50 of inhibition of ODC enzyme activity by AZ turned out to be 290 nM.
